{"source": "patent US20080311122A1", "about": "“Antagonists of Hmgb1 and/or Rage and Methods of Use Thereof” (Medimmune, LLC, priority 2005, published 2008)", "molecules": {"B1": {"name": "E11: human anti-HMG1 antibody, recognizes HMG1 A-Box; VL/VH aa SEQ ID NO: 24/26 (antibody, listed as Homo sapiens, V domains shown)", "VH": "EVQLLESGGGLVQPGGSLRLSCAASGFTFSRYQMNWVRQAPGKGLEWVSSISPSGGHTHYADSVKGRFTISRDNSKNTLYLQMNSLRAEDTAVYYCAKDGRQGKISTVDHWGQGTLVTVSS", "VL": "AQDIQMTQSPGTLSLSPGERATLSCRASQSVRSNFLAWYQQKPGQAPRLLIYGASRRASGIPDRFSGSGFGADFTLSISRLEPEDFAVYYCQQYGSSPNTFGQGSRVEIK"}}, "key": {"[1]": {"tested_on": "active CIA mouse model of arthritis", "assay": "Active collagen-induced arthritis (CIA) mouse model", "type": "in vivo", "conditions": "percent protection, isotype control subtracted", "method": "Induction of Active Collagen Induced Arthritis (CIA) in Mice: Six-eight week old male DBA/1J mice (Jackson Labs, Bar Harbor, Me.) were used. On day 0, isoflurane anesthetized animals were given an intradermal injection, at base of tail, of 200 μg bovine Type II collagen (CII) dissolved in 50 μl 0.1 N acetic acid and emulsified with an equal volume of complete Freund's adjuvant (Chondrex, Redmond, Wash.). Three weeks later on day 21 they were given a second similar intradermal injection of 100 μg of CII dissolved in 25 μl 0.1N acetic acid and emulsified with an equal volume of incomplete Freund's adjuvant (Difco, Detroit, Mich.).\nMonitoring Disease in Mice: Beginning at day 14 all animals were observed daily to assess the status of the disease in their paws, which was done by assigning a qualitative clinical score to each of the paws. Every day, each animal has its 4 paws scored according to its state of clinical disease. The scoring is done by two observers, with at least one blinded. In addition, each mouse is weighed, to follow body weight changes, at the same time the paws are scored.\nThe grading scale for the 4 lateral digits of each paw are graded as involved or not involved, i.e., 1 or 0. For example, a maximally involved left rear paw would be scored: ankle=3, midfoot=3, digits=4 (clinical score=10 units) We would repeat this for each paw and sum the scores. […]"}, "LPS-induced ALI": {"tested_on": "LPS-induced ALI", "assay": "LPS induced acute lung injury (ALI) mouse model", "type": "in vivo", "conditions": "percent protection, isotype control subtracted", "method": "Induction of LPS-induced ALI: LPS (E. coli strain 01111:B4. Sigma, St. Louis, Mo.) was administered intranasally to isoflurane (Baxter Pharmaceuticals, Deerfield, Ill.) anesthetized adult BALB/c mice on day 1 at a dose of 5-10 ug per mouse in 50-100 μl. For determination of HMG1 levels animals were euthanized by CO2 asphyxiation at 4, 8, 24, 32 and 48 hours post LPS administration, and BronchoAlvcolar Lavarge (BAL) and other samples collected for protein analysis and histopathology. For treatment protocols 24 hours post LPS dosing, anti-HMGB1 antibodies, HMG1 A-box Fc fusion or controls were administered intraperitoneally (i.p.) at a dose of 10 mg/kg in 100 ul volumes. On day 3 (48 h post LPS dosing), animals were euthanized by CO2 asphyxiation and samples (BALs, blood, and lungs) collected for analysis.\nBAL Sample Collection: lungs were flushed three times with ˜0.8 ml Phosphate buffered saline (PBS, pH 7.2, GIBCO, Rockville, Md.) using a syringe with a catheter tubing. BAL samples collected were centrifuged at 1,200 rpm for 10 min at 4 C, supernatant collected and stored at −80 C for protein (e.g. HMGB1) quantitation, and cells in pellet were resuspended and transferred to cytoslides, fixed, GIEMSA stained, and BAL cellularity determined visually with the aid of a microscope."}}}
{"molecule": "B1", "values": [{"measurement": "in vivo CIA active", "setting": "[1]", "result": 0, "unit": "%"}, {"measurement": "in vivo ALI", "setting": "LPS-induced ALI", "result": 37, "unit": "%"}]}
